According to patent publication US20100209435 (published 2010):

T1: E. coli mOPGL 158 (mouse, UniProt O35235)
T1 chain: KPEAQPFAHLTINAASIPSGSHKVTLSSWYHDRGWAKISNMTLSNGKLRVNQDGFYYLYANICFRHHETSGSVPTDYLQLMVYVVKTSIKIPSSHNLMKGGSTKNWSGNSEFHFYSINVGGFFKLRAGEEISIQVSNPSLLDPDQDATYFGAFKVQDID

T2: CHO hOPGL 140 (human, UniProt O14788)
T2 chain: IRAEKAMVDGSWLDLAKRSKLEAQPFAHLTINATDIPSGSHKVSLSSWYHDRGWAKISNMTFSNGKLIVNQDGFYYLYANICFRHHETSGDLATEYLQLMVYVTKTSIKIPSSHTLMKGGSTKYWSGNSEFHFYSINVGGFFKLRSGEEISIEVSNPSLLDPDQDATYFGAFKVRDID

T3: FLAG-murine OPGL[158-316]/DE (mouse, UniProt O35235)
T3 chain: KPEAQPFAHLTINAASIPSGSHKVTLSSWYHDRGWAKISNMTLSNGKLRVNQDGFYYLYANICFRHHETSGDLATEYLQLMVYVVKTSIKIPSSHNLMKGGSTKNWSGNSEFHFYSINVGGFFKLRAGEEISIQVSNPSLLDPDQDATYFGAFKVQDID


How the values were obtained:
E. coli mOPGL 158 [1] = biological target: T1, E. coli mOPGL 158; experiment: ELISA
CHO hOPGL 140 = biological target: T2, CHO hOPGL 140; experiment: SPR
[2] = biological target: T3, FLAG-murine OPGL[158-316]/DE; experiment: ELISA
E. coli mOPGL 158 [3] = biological target: T1, E. coli mOPGL 158; experiment: SPR

Row | Binder | binding result (E. coli mOPGL 158 [1]) | Kd (CHO hOPGL 140) | binding result [2] | binding result (E. coli mOPGL 158 [3])
1 | 18B2 (antibody, V domains shown) VH: EVQLVQSGGGLVHPGGSLRLSCVGSRFTFSAYPMHWVRQAPGKGLEWVSGIGSGGGTNYADSVKGRFTISRDTAKNSLYLQMNSLRAEDMAVYYCARGRNSFDYWGQGTLVTVSS VL: DIQMTQSPSSLSASVGDRVTITCRASQGISTWLAWYQQKPEKAPKSLIYAASSLQSGVPSRFSGSGSGTDFTLTISSLQPEDFATYYCQQYNSYPPTFGQGTKVEIKR | no binding | 0.211 nM | no binding | 
2 | 2E11 (antibody, V domains shown) VH: EVQLVQSGGDLVHPGGSLRLSCVGSGFTFSHYPLHWVRQAPGKGLEWISGIHTGGGTYYTDSVKGRFTISSDNAKNSLYLQMNTLRAEDMAVYYCARGRNSFDYWGQGTLVIVSS VL: DIQMTQSPSSLSASVGDRVTITCRASQGISSWLAWYQQKPEKAPKSLIYAASSLQSGVPSRFSGSGSGTDFTLTISSLQSEDFATYYCQQYNSYPPTFGQGTRLEIKR |  | 0.292 nM | no binding | no binding
3 | 2D8 (antibody, V domains shown) VH: EVQLVQSGGGLVHPGGSLRLSCAGSGFTFSSYGMHWVRQAPGKGLEWVSGIGTGGGTYYADSVKGRFTISRDNVKNSLYLQMNSLRAEDMAVYYCARKNWGWFDYWGQGTLVTVSS VL: EIVLTQSPATLSLSPGERATLSCRASQSISSYLAWYQQKPGQAPRLLIYDASNRATGIPARFSGSGSGTDFTLTISSLEPEDFAVYYCQQRSKWPPYTFGQGTKLEIKR | no binding | 0.092 nM |  | 
4 | 9H7 (antibody, V domains shown) VH: EVQLVQSGGGLVHPGGSLRLSCEGSGFTFSSNGMHWVRQTPGKGLEWVSGIGTAGGTYYADSVKGRFTISRDNVKKSLYLQMNSLRAEDMAIYYCVRKDWGWFDPWGQGALVTVSS VL: EIVLTQSPATLSLSPGERATLSCRASQSISSYLAWYQQKPGQAPRLLIYDASNRATGIPARFSGSGSGTDFTLTISSLEPEDFAVYYCQQRSKWPPYTFGQGTKLEIKR |  | 0.193 nM |  | no binding

Stronger by Kd (CHO hOPGL 140), values ahead:

Row | binding result (E. coli mOPGL 158 [1]) | Kd (CHO hOPGL 140) | binding result [2] | binding result (E. coli mOPGL 158 [3]) | Binder
5 |  | 0.0633 nM |  | no binding | 16E1 (antibody, V domains shown) VH: EVQLVQSGGGLVHPGGSLRLSCAGSGFTFSGHALHWVRQAPGKGLEWVSGIGTHGGTYYADSVKGRFTISRDNAKNSLFLQMNSLSAEDMAVYYCTRRNWGQFDYWGQGTLVTVSS VL: EIVLTQSPATLSLSPGERATLSCRASQSVSSYLAWYQQKPGQAPRLLIYDASNRATGIPARFSGSGSGTDFTLTISSLEPEDFAVYYCQQRSNWPPYTFGQGTKLEIKR
6 |  | 0.0337 nM |  | no binding | 22B3 (antibody, V domains shown) VH: EVQLVQSGGGLVHPGGSLRLSCEGSGFTFSSNGMHWVRQTPGKGLEWVSGIGTAGGTYYADSVKGRFTISRDNVKKSLYLQMNSLRAEDMAIYYCVRKNWGWFDPWGQGALVTVSS VL: EIVLTQSPATLSLSPGERATLSCRASQSVNSYLAWFQQKPGQAPRLLIYDASNRATGIPARFSGSGSGTDFTLTISSLEPEDFAIYYCQQRSNWPPFTFGQGTKLEIKR
